B1: KB001 mouse Fab VL S57P (Fab, V domains shown)
VH: EVQLKQSGPGLVAPSQSLSITCTVSGFSLSIYSVHWVRQPPGKGLEWLGMIWGGGSSDYNSALKSRLSISKDNSKSQVFLKMNSLQTDDTAMYYCARNGNFYAMDYWGQGTSVTVSS
VL: QIVLTQSPAIMSASLGERVTMTCTASSSVSSSFLHWYQQKPGSSPQLWIYSTSNLAPGVPARFSGSGSGTSYSLTISSMEAEDAATYYCHQYHHSPYIYTFGGGTKLEIK
B2: KB001 mouse Fab VL T24L (Fab, V domains shown)
VH: B1 VH
VL: B1 VL with T24L, P57S
B3: KB001 mouse Fab VL T100F (Fab, V domains shown)
VH: B1 VH
VL: B1 VL with P57S, T100F
B4: KB001 mouse Fab VL S27H (Fab, V domains shown)
VH: B1 VH
VL: B1 VL with S27H, P57S
B5: KB001 mouse Fab VL T100M (Fab, V domains shown)
VH: B1 VH
VL: B1 VL with P57S, T100M
B6: KB001 mouse Fab VL S27Y (Fab, V domains shown)
VH: B1 VH
VL: B1 VL with S27Y, P57S
B7: KB001 mouse Fab VL T100L (Fab, V domains shown)
VH: B1 VH
VL: B1 VL with P57S, T100L
B8: KB001 mouse Fab VL S27L (Fab, V domains shown)
VH: B1 VH
VL: B1 VL with S27L, P57S
B9: KB001 mouse Fab VL S26T (Fab, V domains shown)
VH: B1 VH
VL: B1 VL with S26T, P57S
B10: KB001 mouse Fab VL T100G (Fab, V domains shown)
VH: B1 VH
VL: B1 VL with P57S, T100G
B11: KB001 mouse Fab VL A25Y (Fab, V domains shown)
VH: B1 VH
VL: B1 VL with A25Y, P57S
B12: KB001 mouse Fab VL S57G (Fab, V domains shown)
VH: B1 VH
VL: B1 VL with P57G
B13: KB001 mouse Fab VL T100Y (Fab, V domains shown)
VH: B1 VH
VL: B1 VL with P57S, T100Y
B14: KB001 mouse Fab VL T24Q (Fab, V domains shown)
VH: B1 VH
VL: B1 VL with T24Q, P57S
B15: KB001 mouse Fab VL Y97E (Fab, V domains shown)
VH: B1 VH
VL: B1 VL with P57S, Y97E
B16: KB001 mouse Fab VL A25P (Fab, V domains shown)
VH: B1 VH
VL: B1 VL with A25P, P57S
B17: KB001 mouse Fab VL S26G (Fab, V domains shown)
VH: B1 VH
VL: B1 VL with S26G, P57S
B18: KB001 mouse Fab VL S27N (Fab, V domains shown)
VH: B1 VH
VL: B1 VL with S27N, P57S
B19: KB001 mouse Fab VL T24G (Fab, V domains shown)
VH: B1 VH
VL: B1 VL with T24G, P57S
B20: KB001 mouse Fab VL H90W (Fab, V domains shown)
VH: B1 VH
VL: B1 VL with P57S, H90W
B21: KB001 mouse Fab VL T100W (Fab, V domains shown)
VH: B1 VH
VL: B1 VL with P57S, T100W
B22: KB001 mouse Fab VL T100E (Fab, V domains shown)
VH: B1 VH
VL: B1 VL with P57S, T100E
B23: KB001 mouse Fab VL T24N (Fab, V domains shown)
VH: B1 VH
VL: B1 VL with T24N, P57S
B24: KB001 mouse Fab VL T24I (Fab, V domains shown)
VH: B1 VH
VL: B1 VL with T24I, P57S
B25: KB001 mouse Fab VL S57Q (Fab, V domains shown)
VH: B1 VH
VL: B1 VL with P57Q
B26: KB001 mouse Fab VL T24A (Fab, V domains shown)
VH: B1 VH
VL: B1 VL with T24A, P57S
B27: KB001 mouse Fab VL A25E (Fab, V domains shown)
VH: B1 VH
VL: B1 VL with A25E, P57S
B28: KB001 mouse Fab VL T100R (Fab, V domains shown)
VH: B1 VH
VL: B1 VL with P57S, T100R
B29: KB001 mouse Fab VL T100S (Fab, V domains shown)
VH: B1 VH
VL: B1 VL with P57S, T100S
B30: KB001 mouse Fab VL T100H (Fab, V domains shown)
VH: B1 VH
VL: B1 VL with P57S, T100H
B31: KB001 mouse Fab VL T24K/R18S (Fab, V domains shown)
VH: B1 VH
VL: B1 VL with R18S, T24K, P57S
B32: KB001 mouse Fab VL S26P (Fab, V domains shown)
VH: B1 VH
VL: B1 VL with S26P, P57S
B33: KB001 mouse Fab VL A25V (Fab, V domains shown)
VH: B1 VH
VL: B1 VL with A25V, P57S
B34: KB001 mouse Fab VL S95Q (Fab, V domains shown)
VH: B1 VH
VL: B1 VL with P57S, S95Q
B35: KB001 mouse Fab VL A25G (Fab, V domains shown)
VH: B1 VH
VL: B1 VL with A25G, P57S
B36: KB001 mouse Fab VL T100Q (Fab, V domains shown)
VH: B1 VH
VL: B1 VL with P57S, T100Q
B37: KB001 mouse Fab VL T24N/G67D (Fab, V domains shown)
VH: B1 VH
VL: B1 VL with T24N, P57S, G67D

Residue numbers refer to the chain shown, from its start. Numbers in names are those of the source. Where “and” joins values, the source holds several entries; their conditions need not be identical. Equal values may be shown once.

For this assay, the target named is HRgpA-6H (Porphyromonas gingivalis) (UniProt P28784). Description: ELISA, FASEBA Fab on coated HRgpA-6H. On the technique in general: ELISA stands for enzyme-linked immunosorbent assay.
Sequence of UniProt P28784 (P28784 228-991): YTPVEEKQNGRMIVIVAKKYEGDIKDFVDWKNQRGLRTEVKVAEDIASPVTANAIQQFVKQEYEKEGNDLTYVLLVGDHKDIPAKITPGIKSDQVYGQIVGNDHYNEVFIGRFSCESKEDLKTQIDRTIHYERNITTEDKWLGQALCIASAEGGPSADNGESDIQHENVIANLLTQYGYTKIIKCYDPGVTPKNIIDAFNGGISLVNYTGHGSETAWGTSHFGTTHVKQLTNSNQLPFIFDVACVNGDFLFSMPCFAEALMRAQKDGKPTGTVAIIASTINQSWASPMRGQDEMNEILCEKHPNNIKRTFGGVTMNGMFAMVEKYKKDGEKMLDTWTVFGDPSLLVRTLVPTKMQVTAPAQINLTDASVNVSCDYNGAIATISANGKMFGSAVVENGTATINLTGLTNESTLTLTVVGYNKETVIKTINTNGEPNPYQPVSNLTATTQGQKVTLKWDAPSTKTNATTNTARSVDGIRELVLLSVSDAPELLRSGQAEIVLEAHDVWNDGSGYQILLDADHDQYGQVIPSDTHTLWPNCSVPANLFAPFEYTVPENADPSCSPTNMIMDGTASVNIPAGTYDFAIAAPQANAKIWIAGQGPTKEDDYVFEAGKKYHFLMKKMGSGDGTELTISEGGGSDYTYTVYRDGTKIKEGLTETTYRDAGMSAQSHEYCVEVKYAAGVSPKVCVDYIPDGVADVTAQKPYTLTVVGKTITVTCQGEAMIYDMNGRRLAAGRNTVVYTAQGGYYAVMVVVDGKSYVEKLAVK
Take B1: the OD450nm was determined as 0.858 and the Ratio OD(Variant)/OD(WT) is 1.05.

B2: the OD450nm is 0.753 and 0.752 and 0.667; the Ratio OD(Variant)/OD(WT) was 0.979 and 0.978 and 0.867.

As to B3, the OD450nm was determined as 0.552 and the Ratio OD(Variant)/OD(WT) is 1.05.

Take B4: the OD450nm is 0.664 and 0.63 and 0.726; the Ratio OD(Variant)/OD(WT) is 0.885 and 0.839 and 0.967.

For the molecule B5, the OD450nm amounted to 0.589 and the Ratio OD(Variant)/OD(WT) was found to be 1.12.

Consider B6, for which the OD450nm turned out to be 0.617 and the Ratio OD(Variant)/OD(WT) turned out to be 0.822.

On to B7, for which the OD450nm is 0.587 and 0.566; the Ratio OD(Variant)/OD(WT) is 1.12 and 1.08.

For the molecule B8, the OD450nm is 0.649 and the Ratio OD(Variant)/OD(WT) worked out at 0.865.

On to B9, for which the OD450nm stood at 0.761 and the Ratio OD(Variant)/OD(WT) came to 0.972.

Turning to B10, the OD450nm was 0.603 and 0.597; the Ratio OD(Variant)/OD(WT) is 1.15 and 1.14.

For B11, the OD450nm was 0.755 and 0.757; the Ratio OD(Variant)/OD(WT) is 0.964 and 0.967.

Consider B12, for which the OD450nm is 0.873 and 0.825; the Ratio OD(Variant)/OD(WT) is 1.07 and 1.01.

With B13, the OD450nm came out at 0.546 and the Ratio OD(Variant)/OD(WT) came to 1.04.

Take B14: the OD450nm came out at 0.765 and the Ratio OD(Variant)/OD(WT) is 0.995.

As to B15, the OD450nm was determined as 0.793 and the Ratio OD(Variant)/OD(WT) came out at 1.

As for B16, the OD450nm was 0.742 and 0.766 and 0.749; the Ratio OD(Variant)/OD(WT) is 0.948 and 0.978 and 0.957.

In the case of B17, the OD450nm turned out to be 0.73 and the Ratio OD(Variant)/OD(WT) was determined as 0.932.

As for B18, the OD450nm is 0.675 and 0.724 and 0.64; the Ratio OD(Variant)/OD(WT) is 0.899 and 0.965 and 0.853.

On to B19, for which the OD450nm is 0.686 and 0.735; the Ratio OD(Variant)/OD(WT) was 0.892 and 0.956.

Regarding B20, the OD450nm is 0.913 and the Ratio OD(Variant)/OD(WT) worked out at 1.06.

Consider B21, for which the OD450nm turned out to be 0.585 and the Ratio OD(Variant)/OD(WT) came out at 1.12.

For the molecule B22, the OD450nm was 0.613 and 0.621 and 0.674; the Ratio OD(Variant)/OD(WT) is 1.17 and 1.19 and 1.29.

Turning to B23, the OD450nm is 0.715 and 0.8; the Ratio OD(Variant)/OD(WT) was 0.93 and 1.04.

As for B24, the OD450nm stood at 0.741 and the Ratio OD(Variant)/OD(WT) was found to be 0.964.

As to B25, the OD450nm was 0.858 and 0.838; the Ratio OD(Variant)/OD(WT) is 1.05 and 1.03.

On to B26, for which the OD450nm is 0.757 and the Ratio OD(Variant)/OD(WT) amounted to 0.984.

With B27, the OD450nm amounted to 0.655 and the Ratio OD(Variant)/OD(WT) came to 0.837.

B28: the OD450nm was 0.616 and the Ratio OD(Variant)/OD(WT) was 1.18.

With B29, the OD450nm is 0.602 and 0.664 and 0.625; the Ratio OD(Variant)/OD(WT) was 1.15 and 1.27 and 1.19.

Take B30: the OD450nm was 0.597 and 0.631; the Ratio OD(Variant)/OD(WT) is 1.14 and 1.21.

B31: the OD450nm worked out at 0.761 and the Ratio OD(Variant)/OD(WT) is 0.99.

In the case of B32, the OD450nm was 0.644 and 0.677; the Ratio OD(Variant)/OD(WT) was 0.822 and 0.865.

Take B33: the OD450nm turned out to be 0.768 and the Ratio OD(Variant)/OD(WT) is 0.981.

For the molecule B34, the OD450nm was 0.931 and 0.936 and 0.927; the Ratio OD(Variant)/OD(WT) is 1.01 (2×) and 1.02.

B35: the OD450nm is 0.668 and 0.699 and 0.673; the Ratio OD(Variant)/OD(WT) was 0.853 and 0.893 and 0.86.

Take B36: the OD450nm was 0.586 and 0.596 and 0.604; the Ratio OD(Variant)/OD(WT) was 1.12 and 1.14 and 1.15.

As for B37, the OD450nm amounted to 0.755 and the Ratio OD(Variant)/OD(WT) is 0.982.

Source of the values: patent US20230365662A1.
